Reference: article PMC8938473

Target: T1, His6-CRP (cAMP receptor protein) (Shewanella putrefaciens CN32) (UniProt A0ABX8XCW1)
T1 sequence: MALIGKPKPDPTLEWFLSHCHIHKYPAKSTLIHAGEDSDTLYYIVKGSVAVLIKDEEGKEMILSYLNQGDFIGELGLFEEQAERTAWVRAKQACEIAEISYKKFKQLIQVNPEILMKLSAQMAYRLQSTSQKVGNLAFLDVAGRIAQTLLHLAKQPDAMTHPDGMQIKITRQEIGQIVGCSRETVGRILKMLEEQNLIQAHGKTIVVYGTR
Test: EMSA
Conditions: EMSA per DIG Gel Shift Kit 2nd Generation (Roche) protocol, 1 uM cAMP when necessary; buffer, salt, pH and temperature not given

In the case of “ACCGATCCCATAATTAGCTCCCAACACCCAAGTGTTAATCCAAACAAAGGCCCACAAATCCAACAAATGTATGGAAGTGTGATACAAGTGGTGGAATTTTAGCTAATGAGCGAATGGAAGTCAATTTTTTGACGCGCCTCTATCGCTTGGTATTAAGGCTTTTTCTTGCGCATTACCTGTAAAATTGACGCTGGTTTTGTATAAAACTAGATGTTGTATGTTTATTTGTA (double strand) [bpfA-pro]”, the binding is reported as “binds”.
